Test results published in US20160193281A1 (BLUEBERRY THERAPEUTICS, published 2016).
Where no end group is shown, it is not given here.

Key:
[1] = target: T1, uniformly 15N,2H-labelled 6His-MAP kinase p38α (human, UniProt Q16539 2-360, limits assumed, uniformly 15N,2H-labelled); assay: NMR 1H-15N TROSY-HSQC titration, chemical shift changes in slow exchange
T1 construct: not shown: 6His tag

[2] = target: T2, MAP kinase p38α, 6-his C-myc tagged protein expressed in E. coli (human, UniProt Q16539 2-360, limits assumed); assay: biochemical kinase inhibition assay; biochemical enzyme assay, not Biacore
T2 construct: also called human MAP kinase p38α; not shown: 6-his and C-myc tags

[3] = target: T3, MAP kinase p38α (non-phosphorylated, OH-p38α) as used in the Biacore inhibition in solution assay (human, UniProt Q16539 2-360, limits assumed); assay: Biacore 3000 inhibition in solution assay; p38α pre-incubated with peptide, free p38α captured on immobilised ureidoquinazoline compound; Biacore inhibition in solution assay
T3 construct: The text says the chip was calibrated with nonphosphorylated or phosphorylated p38α; also called MAPK14; SAPK2a

[4] = target: p38β (UniProt Q15759 1-364, limits assumed); assay: cell-based or functional assay
[5] = target: T2, MAP kinase p38α, 6-his C-myc tagged …; assay: cell-based or functional assay
[6] = target: 6 kinases (of the selectivity panel, with slight activity); assay: cell-based or functional assay

T2 sequence (Q16539 2-360 limits assumed): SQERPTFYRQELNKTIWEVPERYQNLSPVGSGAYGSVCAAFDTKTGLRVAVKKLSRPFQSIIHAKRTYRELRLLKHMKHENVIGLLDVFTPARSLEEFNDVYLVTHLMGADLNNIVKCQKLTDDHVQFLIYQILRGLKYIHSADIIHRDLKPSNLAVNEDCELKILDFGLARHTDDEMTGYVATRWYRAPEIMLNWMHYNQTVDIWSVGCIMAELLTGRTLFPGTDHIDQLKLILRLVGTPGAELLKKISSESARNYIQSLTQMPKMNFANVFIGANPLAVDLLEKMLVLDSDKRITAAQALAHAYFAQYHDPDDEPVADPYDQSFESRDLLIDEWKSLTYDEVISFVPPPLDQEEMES
T1 sequence (Q16539 2-360 limits assumed): as above
T3 sequence (Q16539 2-360 limits assumed): as above
Chain of p38β (Q15759 whole entry): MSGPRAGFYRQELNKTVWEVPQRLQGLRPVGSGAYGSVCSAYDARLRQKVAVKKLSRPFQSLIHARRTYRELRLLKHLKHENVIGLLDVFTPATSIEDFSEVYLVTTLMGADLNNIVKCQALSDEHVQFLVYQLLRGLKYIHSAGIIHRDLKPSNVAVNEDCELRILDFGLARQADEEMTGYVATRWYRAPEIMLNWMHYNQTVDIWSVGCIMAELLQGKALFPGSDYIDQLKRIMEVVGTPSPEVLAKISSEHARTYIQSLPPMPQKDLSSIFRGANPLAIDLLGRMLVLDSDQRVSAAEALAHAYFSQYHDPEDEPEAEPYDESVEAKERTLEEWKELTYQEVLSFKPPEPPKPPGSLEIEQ

Kd [1] [nM]	Ki [2] [nM]	Kd [3] [nM]	selectivity (kinase inhibition) compared to p38α [4] [fold]	IC50 (inhibition of MAP kinase p38α) [5] [nM]	IC50 for inhibition of the activation of MAP kinase p38α by MKK6 [5] [nM]	selectivity (kinase inhibition) compared to p38α [6] [fold]	Binder
< 1000	7	25	100	7	1	–	Ac-HKSRALLIFQKIMWLRRQ (Synthetic peptide, all L-amino acids, peptide bonds throughout, N-acetylated; also called BB2702 peptide) [BB2702 (N-acetylated peptide HKSRALLIFQKIMWLRRQ)]
–	–	–	–	–	–	500 to 1000	Ac-HKSRALLIFQKIMWLRRQ [BB2702 (N-acetylated peptide …)]
